In patent US20140287507A1:

Target: integrin β1 (receptor subunit on the seeded cells, blocked with anti-β1 monoclonal antibody) (hamster (baby hamster kidney cells))
Assay: cell-based or functional assay

Substance: TMV-RGD1 (Tobacco mosaic virus particle whose coat protein carries the insert GRGDSPG extended after T159) (from UniProt P69687 2-159)
- cell attachment on virus coated plate after blocking the cells with integrin specific monoclonal antibody (% drop in attachment): 25
